Results as given in the supplement of paper PMC9170038.

Test system: MS2 coat protein
Assay: apparent KD of MS2 coat protein; higher = weaker reporter binding
Conditions: Eterna round: R101
Method: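 RNA-MaP: designed FMN/MS2 RNA switches (84 nt design region) are transcribed on-chip within common flanks and titrated with SNAP-549-labelled MS2 coat protein (about 1-3000 nM) in 100 mM Tris pH 7.5, 80 mM KCl, 4 mM MgCl2, without or with 200 uM FMN. Median apparent KD per design; activation ratio = KD,OFF / KD,ON.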

Row | Sequence | apparent KD of MS2 coat protein (input ligand: FMN 200 uM) [nM] | apparent KD of MS2 coat protein (input ligand: none) [nM]
1 | AAAUAACUUGAAGGAUAUGACCCUCGAGGUGACUAAAAGUCACCUCGAGGGUCAGAAGGUCGAGGAUCACCCGACCUAGUGAAA [#SharedSequence SLExNG1: 7-1] (puzzle (switch architecture): Small Loop Exclusion NG 1) | 7.61 | 7.54
2 | AAUAAAACUCAAGGAUAUGACUCCGAAACGGAGUCAGAAGGUGAGGAUCACCCACCUAGCUCAGCGUCGAAAGACGCUGAGCAA [#SharedSequence ExNG1 - 32] (puzzle (switch architecture): Exclusion NG 1) | 42 | 9.01
3 | AAUAAACAAUAAAAGAGUCCACGAAACUUUUGAGGAUCACCCAGAAGGGCUGAGGUAAUACCUCAGCAGGAUAUGGACGUGGAC [#SharedSequence IExNG# - 3] (puzzle (switch architecture): Inverted Exclusion NG 3) | 86.8 | 12.4
4 | ACUUUAUUUGAGAAGGUGAAGUGGAAACAUGAGGAUCACCCAUGUAAUACGAAGCGUAUUUUUAUCAAGGAUAUCAAAUAAAGA [WHB=ISS-NG2-MS2FAR3 #bad] (puzzle (switch architecture): Inverted Same State NG 2) | 7.58 | 10.7
5 | AGACCUGCUCAGAAGGCGUGUGCGAGGCUGGAAACAGCCUCGAAUUAAAAUCUUCGAGGAUCACCCGAGGAUAUGAGCAGGUCA [#SharedSequence - IExNG2: 20] (puzzle (switch architecture): Inverted Exclusion NG 2) | 59.7 | 11.3
6 | CAAUUGGCACAGAAGGGUGACAUGAGGAUCACCCAUGUAGCGUGGCAUUCAGGAAGAGCCACGCCACAGGAUAUGUGCGGGCAC [Rigeri] (puzzle (switch architecture): Inverted Same State NG 2) | 31.9 | 24.7
7 | CCUGCACCUCAAGGAUAUCCAGUCGUUUCGACUGGAGAAGGUGAGGAUCACCCACCUAGCCUGACGUUUGUCAGGCAUGCAGGU [#AddUracilToBrourdLoops 1 - Jieux - Exclusion NG1] (puzzle (switch architecture): Exclusion NG 1) | 49.5 | 27
8 | CUUAGUUUGUAGAAGGGUGACAUGAGGAUCACCCAUGUGCGUCGCCUGAAAGACCAGGGUACGCCACAGGAUAUACAAAGUAAG [Ororzati] (puzzle (switch architecture): Inverted Same State NG 2) | 88.2 | 58
9 | GGUACUCAAAGAGUACCAAUACGAACAUGAGGAUCACCCAUGUAGGAUAUGCUACUCAAAGAGUAGCAGAAGGACAUGUGCCUU [salish99_ExNG3_020 #endbits investigation] (puzzle (switch architecture): Exclusion NG 3) | 92.3 | 15.1
10 | GUAGCUAUCGGAGGAUAUUCAUACCGGAAACGGACAUGAGGAUCACCCAUGUGGCGAAAGCCUUGGGAGAAGGCCGAUAGCUAC [#DoubleMagnetSystem - jl-sng2-2.23 Eli mod] (puzzle (switch architecture): Same State NG 2) | 7.49 | 215
11 | GUGCCUUGGGAGAAGGAUAAUUAAUAAUAAAUAAAAGGAUAUUCAUACCGGAAACGGACAUGAGGAUCACCCAUGUGGCACAAA (puzzle (switch architecture): Inverted Same State NG 1) | 45.4 | 186
12 | UAUUAUAUAUAGAAGGACAUGAGGAUCACCCAUGUCGCCGGGCCCGGGAAACCGGGCCCGGCCAUGUAGGAUAUAUAUAUAGUA [#This is a good prank 9] (puzzle (switch architecture): Inverted Exclusion NG 2) | 7.72 | 5.35
